{"source": "paper PMC2846628", "origin": "cited, not measured here", "target": "Cdc25 phosphopeptide (Homo sapiens)", "assay": "NMR titration", "data": [{"substance": "Pin1 1-163 (from UniProt Q13526)", "values": [{"measurement": "Kd", "result": 8, "unit": "µM"}]}]}
